“Also recorded” adds a separate entry of the source.
How the values were obtained:
[1] = type: in vivo, mouse; details: An2-PAPTP 5 µmoles/kg bw i.v. in mouse plasma
Procedure: The brains of these mice were analyzed to evaluate the presence of the construct in the tissue (see Section 4.7). Each brain was homogenized and incubated with an equal volume of phosphate-buffered saline (PBS, pH 12.5) for 24 h; 10 volumes of ethyl acetate were then added. After vigorous mixing, the organic phase was collected, concentrated and analyzed via HPLC. This procedure allows hydrolysis of the carbamate bond, leading to the extraction of PAPTPL, which is considered proportional to the amount of peptide-PAPTP conjugate (or its fragments) present in the brain.
The protocol set up for PAPTPL recovery turned out to be inefficient for the quantification of TAT-PAPTP. An alternative protocol was thus developed. Tissue obtained from untreated mice was weighed and homogenized with PBS pH 7.4 (1 vol) with a potter. The pre-established amount of analyte was added into tissue homogenates and, after thorough vortexing, 1 vol of PBS pH 12.5 was added and the sample was incubated with intermittent vortexing at 60 °C for 24 h. This step is required to allow the hydrolysis of the carbamate bond connecting the peptide and PAPTPL. 10 vol of ethyl acetate were added and, after vortexing and sonication for 2 min, the sample was centrifuged at 12,000× g, 7 min, Room Temperature. The organic phase was collected and concentrated with Hetovac VR-1. ACN was added to the concentrated sample to allow the resuspension of PAPTPL and analyzed via HPLC. Quantification was as described for PAPTPL.
Brain and liver obtained from untreated mice were weighed and homogenized with PBS pH 7.4 (1 vol) with a potter. The pre-established amount of analyte was added into tissue homogenates and, after thorough vortexing, 5 vol of acetone were added and the sample was sonicated for 2 min. Subsequently, 5 vol of ACN containing 0.1% trifluoracetic acid (TFA) were added and the sample was sonicated for 5 min. The sample was then centrifuged at 12,000× g for 7 min at 4 °C and the supernatant was collected, concentrated with a Hetovac VR-1, and analyzed via HPLC-UV.
To quantify the amount of An2-PAPTP stuck in the tissue, the pellet remaining after the procedure described above was incubated with intermittent Vortexing at 60 °C for 3 h with PBS pH 12.5/ACN 1:1 and then centrifuged at 12,000× g for 7 min. HPLC-UV analysis of the supernatant, measuring PAPTPL hydrolyzed from the tissue, thus indirectly reflects the amount of An2-PAPTPL in the pellet (Scheme 3). Quantification was as described for PAPTPL.
(§1) A stock solution of the peptide-PAPTP conjugates was prepared in DMSO. TAT-PAPTP was administered at 8 and 5 μmol/kg bw and An2-PAPTP only at 5 μmol/kg bw. The calculated quantity of drugs was diluted from the stock solution in saline or mouse plasma to a final volume of 200 μL.

C57BL mice = experiment: Observed toxicity after tail vein injection; type: in vivo; details: 5 µmoles/kg bw by tail vein injection in mouse plasma; no proper toxicological study
Procedure: TAT-PAPTP (5 µmoles/kg bw) was administered by tail vein injection to 2 C57BL mice. […] The observed toxicity was not due to the use of plasma, since mice were not made ill by the administration of PAPTP or An2-PAPTP in the same vehicle (see below, Section 2.7).
as §1

SMILES: CC[C@H](C)[C@H](NC(=O)Oc1ccc(CCCOc2ccc([P+](CCCc3ccc(OCCCCOc4c5ccoc5cc5oc(=O)ccc45)cc3)(c3ccccc3)c3ccccc3)cc2)cc1)C(=O)N[C@H](C(=O)N[C@@H](Cc1ccccc1)C(=O)N[C@@H](Cc1ccccc1)C(=O)N[C@@H](Cc1ccc(O)cc1)C(=O)NCC(=O)NCC(=O)N[C@@H](CO)C(=O)N[C@@H](CCCNC(=N)N)C(=O)NCC(=O)N[C@@H](CCCCN)C(=O)N[C@@H](CCCNC(=N)N)C(=O)N[C@@H](CC(N)=O)C(=O)N[C@@H](CC(N)=O)C(=O)N[C@@H](Cc1ccccc1)C(=O)N[C@@H](CCCCN)C(=O)N[C@H](C(=O)N[C@@H](CCC(=O)O)C(=O)N[C@@H](CCC(=O)O)C(=O)N[C@@H](Cc1ccc(O)cc1)C(=O)O)[C@@H](C)O)[C@@H](C)O [An2-PAPTP]
- Brain Psoralenic Species (nmol/g Tissue), 15 min ([1]; 15 min, PAPTPL after carbamate hydrolysis, mean ± SEM, n = 5): 0.3 ± 0.1 nmol/g Tissue
- Brain Psoralenic Species (nmol/g Tissue), 30 min ([1]; 30 min, PAPTPL after carbamate hydrolysis, mean ± SEM, n = 4): 0.4 ± 0.6 nmol/g Tissue
- presence in brain one hour post-injection ([1]; one hour): only a trace could be detected
- observed toxicity in mice (C57BL mice): not made ill; also recorded: considerably less toxic than TAT-PAPTP; also recorded: did not show toxicity

From article PMC7914648 (Pharmaceuticals, 2021)
